# Measurements taken from article PMC8208582, “Crosstalk between H2A variant-specific modifications impacts vital cell functions” (PLoS Genetics, 2021).
# B1: recombinant H2A.13 (natural protein, Arabidopsis, UniProt Q9LHQ5 1-132, looked up)
# chain: MAGRGKTLGSGVAKKSTSRSSKAGLQFPVGRIARFLKNGKYATRVGAGAPVYLAAVLEYLAAEVLELAGNAARDNKKTRIVPRHIQLAVRNDEELSKLLGDVTIANGGVMPNIHSLLLPKKAGASKPSADED
# notes: histone H2A.13 of Arabidopsis; source: E. coli BL21 (DE3), purified (Ni-NTA under denaturing conditions, thrombin, SP sepharose)
# B2: recombinant H2A.W.6 (natural protein, Arabidopsis, UniProt Q9FJE8 1-150, looked up)
# chain: MESTGKVKKAFGGRKPPGAPKTKSVSKSMKAGLQFPVGRITRFLKKGRYAQRLGGGAPVYMAAVLEYLAAEVLELAGNAARDNKKSRIIPRHLLLAIRNDEELGKLLSGVTIAHGGVLPNINSVLLPKKSATKPAEEKATKSPVKSPKKA
# notes: histone H2A.W.6 of Arabidopsis; source: E. coli BL21 (DE3), purified (Ni-NTA under denaturing conditions, thrombin, SP sepharose)
# B3: recombinant H2A.W.7 (natural protein, Arabidopsis, UniProt Q94F49 1-150, looked up)
# chain: MESSQATTKPTRGAGGRKGGDRKKSVSKSVKAGLQFPVGRIARYLKKGRYALRYGSGAPVYLAAVLEYLAAEVLELAGNAARDNKKNRINPRHLCLAIRNDEELGRLLHGVTIASGGVLPNINPVLLPKKSTASSSQAEKASATKSPKKA
# notes: histone H2A.W.7 of Arabidopsis; source: E. coli BL21 (DE3), purified (Ni-NTA under denaturing conditions, thrombin, SP sepharose)
# Biological target: T1, recombinant H2B.9 (Arabidopsis, UniProt O23629 1-150)
# T1 construct: histone H2B.9 (HTB9) of Arabidopsis; source: E. coli BL21 (DE3), purified (Ni-NTA under denaturing conditions, thrombin, SP sepharose)
# Assay: SEC; freeze-dried histones mixed at a 1:1 molar ratio in 7 M guanidine hydrochloride, step-wise dialysed from 2 M to 0.1 M NaCl refolding buffer, Superdex200 in 0.1 M NaCl refolding buffer; peak fractions on SDS-PAGE
# Details: both partners purified
# T1 sequence (O23629 whole entry): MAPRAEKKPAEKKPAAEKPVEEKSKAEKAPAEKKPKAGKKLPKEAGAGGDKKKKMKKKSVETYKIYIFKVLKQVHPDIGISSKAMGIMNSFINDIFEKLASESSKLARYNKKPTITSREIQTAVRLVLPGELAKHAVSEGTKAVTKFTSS
row,binding result,Binder
1,binds,B1
2,binds,B2
3,binds,B3
